This note sets out measurements from patent US20200407424A1 (FRAUNHOFER GESELLSCHAFT ZUR F RDERUNG DER ANGEWANDTEN …, published 2020).

Common to all, as to test: in vitro binding assay
In assay [1] the target is T1, recombinant MHC class II protein of the HLA DRB1 0404 genotype (human).
T1 construct: construct not described

Assay [2] addresses T2, recombinant MHC class II protein of the HLA DRB1 0401 genotype (human).
T2 construct: construct not described; also called HLA-DR0401

Assay [3] addresses T3, recombinant MHC class II protein of the HLA DRB1 0405 genotype (human).
T3 construct: construct not described

In assay [4] the target is T4, recombinant MHC class II protein of the HLA DRB1 0101 genotype (human).
T4 construct: construct not described

In assay [5] the target is T5, recombinant MHC class II protein of the HLA DRB1 0408 genotype (human).
T5 construct: construct not described

Assay [6] concerns the target T1, recombinant MHC class II protein of the …. The source holds these as a separate data set.
Assay [7] addresses T6, recombinant MHC class II protein of the HLA DRB1 1001 genotype (human).
T6 construct: construct not described

For assay [8], the target named is T2, recombinant MHC class II protein of the …. The source holds these as a separate data set.
For assay [9], the target named is T3, recombinant MHC class II protein of the …. The source holds these as a separate data set.
Assay [10] deals with T4, recombinant MHC class II protein of the …. This is another data set of the same source.
For assay [11], the target named is T2, recombinant MHC class II protein of the …. This is another data set of the same source.

Like-named read-outs stand apart in the source and are kept apart here. Square brackets hold non-standard residues; d marks the D form. Ends that are not written are not given here. Cit = NC(=O)NCCC[C@H](N)C(=O)O

In the case of YRRMFGGPGTASRPS [vimentin peptide ref no 3], the binding result in assay [1], in assay [2], in assay [3] and in [4] was “binds” throughout.

Take LLAELEQLKGQGKS[Cit] [citrullinated vimentin peptide ref no 117]: the binding result in assay [1] is on record as “no binding”; in assay [3], “no binding”; in assay [4] it was “binds”.

Regarding MSTRSVSSSSYRRMF [vimentin peptide ref no 1], the binding result is “binds” in assay [1], “binds” in assay [2], “no binding” in assay [3] and “binds” in [4].

As for GVXLLQDSVDFSLAD (citrulline (Xaa) at 3) [citrullinated vimentin peptide ref no 108], the binding result in assay [1] is reported as “no binding”; in assay [2], “binds”; in assay [3] it was “no binding”; in assay [4], “no binding”.

Regarding SERLAKYNQLLRIEE [a-enolase peptide ref no 81], the binding result was “no binding” in assay [5]; “binds” in assay [6]; “no binding” in assay [7]; “no binding” in assay [8]; “no binding” in assay [9]; “binds” in [10].

As for RKLLEGEESRISLPL [vimentin peptide ref no 81], the binding result is “no binding” in [1], “binds” in [2], “no binding” in assay [3] and “no binding” in assay [4].

As for KTIAPALVSKKLNVT [a-enolase peptide ref no 15], the binding result in [5] is reported as “binds”; in assay [6], “binds”; in assay [7], “no binding”; in assay [8], “no binding”; in [9], “no binding”; in assay [10], “binds”.

With KGVPLYRHIADLAGN [a-enolase peptide ref no 26], the binding result is listed as “binds” in assay [5]; “binds” in [6]; “no binding” in assay [7]; “binds” in assay [8]; “binds” in assay [9]; “binds” in assay [10].

For the molecule GAPCRSERLAKYNQL [a-enolase peptide ref no 80], the binding result is “binds” in [5]; “no binding” in [6]; “no binding” in assay [7]; “no binding” in [8]; “binds” in assay [9]; “binds” in assay [10].

As to VDQLTNDKARVEVER [vimentin peptide ref no 33], the binding result in [1] is recorded as “binds”; in assay [2], “binds”; in [3] it was “no binding”; in [4], “no binding”.

Consider AEVYHNLKNVIKEKY [a-enolase peptide ref no 38], for which the binding result is “binds” in [5]; “no binding” in assay [6]; “no binding” in assay [7]; “binds” in [8]; “binds” in [9]; “binds” in [10].

In the case of RYMGKGVSKAVEHIN [a-enolase peptide ref no 12], the binding result in [5] was “binds”; in [6], “no binding”; in [7], “binds”; in assay [8] it was “no binding”; in assay [9], “binds”; in [10], “binds”.

Consider NDKARVEVERDNLAE [vimentin peptide ref no 34], for which the figures for the binding result in assay [2], in assay [3] and in assay [4] were “binds”, “no binding” and “no binding”, respectively.

Turning to SAV[Cit]L[Cit]SSVPGV[Cit]LL [citrullinated vimentin peptide ref no 106], the binding result in [1], in assay [2], in assay [3] and in assay [4] was “binds” each time.

For SPGGVYAT[Cit]SSAV[Cit]L [citrullinated vimentin peptide ref no 104], the binding result was “binds” in assay [1], “binds” in [2], “no binding” in assay [3] and “binds” in [4].

Take SS[Cit]SYVTTST[Cit]TYSL [citrullinated vimentin peptide ref no 98]: the binding result in assay [2] and in assay [3] was “binds” throughout.

For KSFIKDYPVVSIEDP [a-enolase peptide ref no 57], the binding result in [5], in assay [6], in assay [7], in assay [8], in assay [9] and in assay [10] was “binds” each time.

With GVSKAVEHINKTIAP [a-enolase peptide ref no 13], the binding result in [5] is “no binding”; in [6], “binds”; in assay [7], “no binding”; in [8] it was “no binding”; in assay [9] it was “no binding”; in [10] it was “binds”.

Consider VEHINKTIAPALVSK [a-enolase peptide ref no 14], for which the binding result in assay [5] is recorded as “binds”; in assay [6], “binds”; in [7] it was “no binding”; in [8], “no binding”; in [9], “no binding”; in [10] it was “binds”.

NTLQSFRQDVDNASL [vimentin peptide ref no 41]: the binding result in assay [1], in assay [2] and in [3] was “binds” in each case.

Regarding DNASLA[Cit]LDLE[Cit]KVE [citrullinated vimentin peptide ref no 133], the binding result is recorded as “no binding” in [1], “binds” in [2], “no binding” in [3] and “no binding” in assay [4].

Consider FKNT[Cit]TNEKVELQEL [citrullinated vimentin peptide ref no 111], for which the binding result in assay [1] was “no binding”; in assay [2] it was “binds”; in [3], “no binding”; in assay [4], “binds”.

On to STEYRRQVQSLTCEV [vimentin peptide ref no 64], for which the binding result in assay [2], in assay [3] and in [4] was “binds” each time.

On to THSK[Cit]TLLIKTVET[Cit] [citrullinated vimentin peptide ref no 166], for which the binding result in assay [1] was “binds”; in assay [2], “no binding”; in assay [3], “no binding”; in assay [4], “no binding”.

Regarding REYQDLLNVKMALDI [vimentin peptide ref no 77], the binding result in assay [3] and in [4] was “binds” in each case.

For MSILKIHAREIFDSR [a-enolase peptide ref no 1], the binding result was “no binding” in [5]; “binds” in [6]; “binds” in assay [7]; “no binding” in [8]; “binds” in [9]; “binds” in [10].

As to KAKFAG[Cit]NF[Cit]NPLAK [citrullinated a-enolase peptide ref no 324], the binding result was “no binding” in assay [5]; “binds” in assay [6]; “no binding” in assay [7]; “binds” in [9]; “no binding” in [10]; “binds” in assay [11].

For YAT[Cit]SSAV[Cit]L[Cit]SSVP [citrullinated vimentin peptide ref no 105], the binding result in assay [1] is recorded as “no binding”; in assay [2] it was “binds”; in [3], “no binding”; in assay [4], “binds”.
